This experiment concerns the target 人重组TSLP蛋白 (recombinant human TSLP protein from E. coli GDMCC No:60083) (human) (UniProt Q969D9). The experiment is described as follows: ELISA, dilution series of the antibody on TSLP antigen protein (Fig. 4). On the technique in general: An ELISA detects its analyte on a solid surface through an enzyme-linked reagent.
Chain of UniProt Q969D9 (Q969D9 29-159 limits assumed): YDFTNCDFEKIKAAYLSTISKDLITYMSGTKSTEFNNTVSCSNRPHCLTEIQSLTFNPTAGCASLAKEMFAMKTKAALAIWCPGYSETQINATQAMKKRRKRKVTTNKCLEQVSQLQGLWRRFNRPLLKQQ

B1: 抗人TSLP单克隆抗体 (anti-human TSLP monoclonal antibody, from hybridoma ascites, Example 3) (antibody, IgG1, V domains shown)
VH: QIQLVQSGPELKKPGETVKISCKASGYTFTNYGMNWVKQAPGKGLKWMGWINTYTGEPTYADDFKGRFAFSLETSASTAYLQINNLKNEDMATYFCARGLTGTRGRFAYWGQGTLVTVSA
VL: DIVMTQSHKFMSTSVGDRVSITCKASQDVSTAVAWYQQKPGQSPKLLIYWASTRHTGVPDRFTGSGSGTDYTLTISSVQAEDLALYYCQQHYSTPPTFGGGTKLEIK
In the case of B1, the 效价 (titer, dilution fold at which OD is more than 2 times the negative control) (倍 (dilution fold)) stood at 655000.
